Columns and labels:
AncSZ = experiment: phosphorylation enrichment, bacterial display (enrichment ratio); higher = better substrate or ligand; peptides without Tyr show the background
EPHB2 = EPHB2 (UniProt P29323); experiment: as above
Fer (mouse) = experiment: as above
Hck = Hck (UniProt P08631); experiment: as above
EPHB1 = EPHB1 (UniProt P54762); experiment: as above
FGFR1 = FGFR1 (UniProt P11362); experiment: as above
Fes = Fes (UniProt P07332); experiment: as above
c-Src = experiment: as above
MERTK = MERTK (UniProt Q12866); experiment: as above
c-Abl (mouse) = experiment: as above
FGFR3 = FGFR3 (UniProt P22607); experiment: as above
Fyn = Fyn (UniProt P06241); experiment: as above
Jak2 = Jak2 (UniProt O60674); experiment: as above
SHP2-C SH2 = experiment: SH2 binding enrichment of the phosphorylated peptide, bacterial display (enrichment ratio); higher = better substrate or ligand; peptides without Tyr show the background
c-Src SH2 = experiment: as above
Grb2 SH2 = Grb2 SH2 (UniProt P62993); experiment: as above
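Wherever SH2 binding enrichment of the phosphorylated peptide, bacterial display is given: peptide library displayed on the E. coli surface as eCPX fusions, selected cells deep-sequenced, score is each peptide's frequency after selection divided by its frequency in the input.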
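Wherever phosphorylation enrichment, bacterial display is given: 11-residue human phosphosite peptides and single-mutation variants displayed on the E. coli surface, counted by deep sequencing, each peptide's frequency after selection divided by its frequency in the unselected input library; frequency after pTyr selection over input frequency; kinase dosed for 20-30% of maximal phosphorylation in three min.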

Jak2, sequence (O60674 whole entry, looked up): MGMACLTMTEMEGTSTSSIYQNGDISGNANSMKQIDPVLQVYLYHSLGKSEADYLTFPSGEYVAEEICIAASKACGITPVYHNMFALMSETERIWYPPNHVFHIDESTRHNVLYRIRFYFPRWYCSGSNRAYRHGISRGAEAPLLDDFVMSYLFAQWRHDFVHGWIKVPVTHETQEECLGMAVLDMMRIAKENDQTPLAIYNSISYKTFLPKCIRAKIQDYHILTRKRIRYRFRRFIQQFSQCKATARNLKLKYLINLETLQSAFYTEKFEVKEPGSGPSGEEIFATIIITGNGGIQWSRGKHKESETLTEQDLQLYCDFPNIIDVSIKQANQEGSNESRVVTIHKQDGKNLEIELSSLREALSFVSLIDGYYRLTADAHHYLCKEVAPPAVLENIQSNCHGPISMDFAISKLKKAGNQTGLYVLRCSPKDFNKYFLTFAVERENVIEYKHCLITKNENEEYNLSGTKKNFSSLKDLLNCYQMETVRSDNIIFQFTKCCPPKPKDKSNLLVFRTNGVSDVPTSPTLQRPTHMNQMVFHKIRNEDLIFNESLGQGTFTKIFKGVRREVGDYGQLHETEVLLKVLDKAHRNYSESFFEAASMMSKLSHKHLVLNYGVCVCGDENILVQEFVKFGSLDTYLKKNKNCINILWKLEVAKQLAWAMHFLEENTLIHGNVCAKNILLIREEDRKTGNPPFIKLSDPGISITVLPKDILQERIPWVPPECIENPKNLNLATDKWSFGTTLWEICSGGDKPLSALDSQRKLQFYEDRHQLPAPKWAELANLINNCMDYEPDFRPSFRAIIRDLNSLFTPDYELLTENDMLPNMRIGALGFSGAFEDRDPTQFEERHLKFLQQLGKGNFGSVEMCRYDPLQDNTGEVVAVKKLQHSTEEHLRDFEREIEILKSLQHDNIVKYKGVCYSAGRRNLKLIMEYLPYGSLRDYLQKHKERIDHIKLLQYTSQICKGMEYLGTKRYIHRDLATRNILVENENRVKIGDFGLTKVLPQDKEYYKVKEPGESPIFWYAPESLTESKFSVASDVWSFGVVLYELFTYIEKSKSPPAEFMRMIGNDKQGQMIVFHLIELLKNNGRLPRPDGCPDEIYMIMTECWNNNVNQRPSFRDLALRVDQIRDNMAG
MERTK, sequence (Q12866 whole entry, looked up): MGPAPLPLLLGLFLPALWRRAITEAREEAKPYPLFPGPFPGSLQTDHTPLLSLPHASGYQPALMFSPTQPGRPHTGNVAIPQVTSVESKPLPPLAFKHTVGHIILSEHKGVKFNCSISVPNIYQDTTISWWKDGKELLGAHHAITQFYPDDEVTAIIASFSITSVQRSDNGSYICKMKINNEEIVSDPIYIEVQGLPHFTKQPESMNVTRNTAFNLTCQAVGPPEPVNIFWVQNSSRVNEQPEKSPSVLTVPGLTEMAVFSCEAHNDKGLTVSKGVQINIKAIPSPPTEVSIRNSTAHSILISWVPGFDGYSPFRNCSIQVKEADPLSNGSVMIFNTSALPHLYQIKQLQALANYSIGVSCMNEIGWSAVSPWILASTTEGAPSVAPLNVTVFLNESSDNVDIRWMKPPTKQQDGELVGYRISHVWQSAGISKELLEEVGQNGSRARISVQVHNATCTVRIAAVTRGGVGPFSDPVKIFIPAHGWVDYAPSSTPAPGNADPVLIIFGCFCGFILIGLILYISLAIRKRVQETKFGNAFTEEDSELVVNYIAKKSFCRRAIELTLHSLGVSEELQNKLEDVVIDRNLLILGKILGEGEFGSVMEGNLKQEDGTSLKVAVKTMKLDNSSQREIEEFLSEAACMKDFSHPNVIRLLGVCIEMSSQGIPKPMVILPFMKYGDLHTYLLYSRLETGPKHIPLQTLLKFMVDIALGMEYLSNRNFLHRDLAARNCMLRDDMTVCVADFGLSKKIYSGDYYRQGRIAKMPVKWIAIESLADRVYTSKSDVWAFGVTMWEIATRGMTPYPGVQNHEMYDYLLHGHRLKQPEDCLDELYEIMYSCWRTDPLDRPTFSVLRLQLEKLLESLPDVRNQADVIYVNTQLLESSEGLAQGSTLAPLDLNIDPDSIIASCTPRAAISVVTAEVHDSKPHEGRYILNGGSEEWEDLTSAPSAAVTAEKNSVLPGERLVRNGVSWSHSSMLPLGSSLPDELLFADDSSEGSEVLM
EPHB2, sequence (P29323 whole entry, looked up): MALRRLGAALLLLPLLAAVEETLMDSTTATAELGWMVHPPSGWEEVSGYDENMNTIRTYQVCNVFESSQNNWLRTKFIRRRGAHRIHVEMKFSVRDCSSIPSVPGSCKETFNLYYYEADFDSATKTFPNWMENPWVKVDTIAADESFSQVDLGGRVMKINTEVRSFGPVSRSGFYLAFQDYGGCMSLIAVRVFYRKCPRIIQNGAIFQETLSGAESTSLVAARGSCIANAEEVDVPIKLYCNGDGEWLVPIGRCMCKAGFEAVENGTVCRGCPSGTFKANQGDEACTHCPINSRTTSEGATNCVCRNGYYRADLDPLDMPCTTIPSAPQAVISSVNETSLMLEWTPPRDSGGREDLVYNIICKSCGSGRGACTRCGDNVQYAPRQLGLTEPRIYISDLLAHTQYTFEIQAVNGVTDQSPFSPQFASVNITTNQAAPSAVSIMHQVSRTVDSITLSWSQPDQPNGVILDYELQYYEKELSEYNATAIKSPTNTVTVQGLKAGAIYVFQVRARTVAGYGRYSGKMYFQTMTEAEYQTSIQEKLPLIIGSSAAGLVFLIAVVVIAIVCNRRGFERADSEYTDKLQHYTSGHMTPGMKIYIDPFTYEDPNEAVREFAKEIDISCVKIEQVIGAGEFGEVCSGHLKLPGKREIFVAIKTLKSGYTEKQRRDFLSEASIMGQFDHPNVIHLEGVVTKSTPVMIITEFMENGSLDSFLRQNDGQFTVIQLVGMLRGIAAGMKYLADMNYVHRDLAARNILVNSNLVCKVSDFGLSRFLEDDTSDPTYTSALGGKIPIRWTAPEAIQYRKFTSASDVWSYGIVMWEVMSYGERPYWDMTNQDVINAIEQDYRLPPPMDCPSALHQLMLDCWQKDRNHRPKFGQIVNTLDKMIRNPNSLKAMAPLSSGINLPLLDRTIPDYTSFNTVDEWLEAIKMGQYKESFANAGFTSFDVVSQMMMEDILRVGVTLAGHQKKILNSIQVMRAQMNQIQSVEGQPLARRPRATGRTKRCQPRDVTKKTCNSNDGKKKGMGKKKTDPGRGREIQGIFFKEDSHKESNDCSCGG
FGFR3, sequence (P22607 whole entry, looked up): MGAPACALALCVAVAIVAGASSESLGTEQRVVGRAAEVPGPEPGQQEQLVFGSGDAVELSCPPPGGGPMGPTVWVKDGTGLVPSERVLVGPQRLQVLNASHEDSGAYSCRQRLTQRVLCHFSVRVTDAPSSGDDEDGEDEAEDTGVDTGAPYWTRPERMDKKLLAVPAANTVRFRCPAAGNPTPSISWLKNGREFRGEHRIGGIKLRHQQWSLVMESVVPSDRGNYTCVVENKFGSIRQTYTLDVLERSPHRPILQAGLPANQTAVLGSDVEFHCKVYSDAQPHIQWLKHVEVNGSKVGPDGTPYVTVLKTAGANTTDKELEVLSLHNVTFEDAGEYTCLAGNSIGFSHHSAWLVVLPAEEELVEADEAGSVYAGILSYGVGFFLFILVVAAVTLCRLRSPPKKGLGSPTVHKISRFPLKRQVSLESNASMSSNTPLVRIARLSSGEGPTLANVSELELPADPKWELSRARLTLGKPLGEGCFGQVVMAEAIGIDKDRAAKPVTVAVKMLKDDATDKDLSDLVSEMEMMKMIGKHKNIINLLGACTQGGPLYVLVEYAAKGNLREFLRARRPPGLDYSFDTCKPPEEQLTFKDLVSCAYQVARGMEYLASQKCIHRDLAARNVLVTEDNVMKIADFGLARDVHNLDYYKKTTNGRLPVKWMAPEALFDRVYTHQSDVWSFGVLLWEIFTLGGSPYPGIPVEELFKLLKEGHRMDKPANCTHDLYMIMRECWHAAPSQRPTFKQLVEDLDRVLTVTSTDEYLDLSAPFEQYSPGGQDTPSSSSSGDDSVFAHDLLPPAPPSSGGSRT
Grb2 SH2, sequence (P62993 whole entry, looked up, the tested form may be a part): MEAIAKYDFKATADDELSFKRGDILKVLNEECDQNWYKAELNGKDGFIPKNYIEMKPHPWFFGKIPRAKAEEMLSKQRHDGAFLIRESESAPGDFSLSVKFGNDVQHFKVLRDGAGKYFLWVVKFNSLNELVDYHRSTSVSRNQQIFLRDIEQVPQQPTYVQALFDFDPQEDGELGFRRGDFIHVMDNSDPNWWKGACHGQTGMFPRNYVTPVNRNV
Hck, sequence (P08631 whole entry, looked up): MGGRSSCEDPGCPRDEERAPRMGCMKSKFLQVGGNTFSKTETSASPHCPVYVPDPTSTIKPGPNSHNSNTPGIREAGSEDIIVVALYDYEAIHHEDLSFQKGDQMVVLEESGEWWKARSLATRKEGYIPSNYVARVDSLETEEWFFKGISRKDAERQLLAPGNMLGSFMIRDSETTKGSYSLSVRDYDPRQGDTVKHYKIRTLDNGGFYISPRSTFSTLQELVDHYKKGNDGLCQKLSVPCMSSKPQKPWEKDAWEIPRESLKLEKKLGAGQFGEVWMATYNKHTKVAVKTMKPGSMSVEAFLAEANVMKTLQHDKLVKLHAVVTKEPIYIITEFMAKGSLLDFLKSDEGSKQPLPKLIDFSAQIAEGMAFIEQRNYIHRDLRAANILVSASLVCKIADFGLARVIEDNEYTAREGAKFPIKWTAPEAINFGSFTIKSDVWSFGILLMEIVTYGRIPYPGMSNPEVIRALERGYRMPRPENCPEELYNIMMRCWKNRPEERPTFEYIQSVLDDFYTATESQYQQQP

Row | Sequence | phosphorylation enrichment (AncSZ) | phosphorylation enrichment (EPHB2) | phosphorylation enrichment (Fer (mouse)) | phosphorylation enrichment (Hck) | phosphorylation enrichment (EPHB1) | phosphorylation enrichment (FGFR1) | phosphorylation enrichment (Fes) | phosphorylation enrichment (c-Src) | phosphorylation enrichment (MERTK) | phosphorylation enrichment (c-Abl (mouse)) | phosphorylation enrichment (FGFR3) | phosphorylation enrichment (Fyn) | phosphorylation enrichment (Jak2) | SH2 binding enrichment (SHP2-C SH2) | SH2 binding enrichment (c-Src SH2) | SH2 binding enrichment (Grb2 SH2)
1 | ENSLDYGSAWA [AR_Y395_P392S] | 1.04 | 0.677 | 0.457 | 0.566 | 0.486 | 0.467 | 0.975 | 0.514 | 0.462 | 0.638 | 0.591 | 0.556 | 0.864 | 0.563 | 0.475 | 0.752
2 | EQMASYSGHSV [ITGA2B_Y319_F320S] | 0.496 | 0.363 | 0.734 | 0.488 | 0.298 | 0.384 | 0.543 | 0.37 | 0.337 | 0.493 | 0.406 | 0.449 | 0.736 | 0.615 | 0.515 | 0.821
3 | EQMLEYMEQLQ [CFAP45_Y289] | 1.21 | 0.561 | 0.526 | 0.638 | 0.579 | 0.764 | 0.994 | 0.505 | 0.494 | 0.532 | 0.846 | 0.549 | 1.1 | 0.5 | 0.357 | 0.799
4 | EQQDMYRLKVL [ABCC6_Y372_N370D] | 0.774 | 0.482 | 0.473 | 0.427 | 0.354 | 0.451 | 0.773 | 0.415 | 0.376 | 0.453 | 0.581 | 0.387 | 0.638 | 0.63 | 0.58 | 0.852
5 | ERCAQYKKDVA [ALDOA_Y138_G142V] | 0.726 | 0.607 | 0.45 | 0.525 | 0.527 | 0.579 | 1.05 | 0.491 | 0.385 | 0.624 | 0.604 | 0.596 | 0.65 | 0.976 | 0.585 | 1.07
6 | ERDFTYEELLN [EIF2S2_Y176_YF] | 1.23 | 0.515 | 0.69 | 0.855 | 0.628 | 0.527 | 1.12 | 0.675 | 0.492 | 0.66 | 0.692 | 0.678 | 1.01 | 0.715 | 0.69 | 1.14
7 | EREFKYGAHNH [OAT_Y50_Y55H_YF] | 0.524 | 0.228 | 0.441 | 0.29 | 0.474 | 0.336 | 0.545 | 0.319 | 0.439 | 0.44 | 0.368 | 0.307 | 0.376 | 0.856 | 0.465 | 0.788
8 | ERFSFYGMKAV [SLC15A2_Y61_YF] | 1.08 | 0.605 | 0.554 | 0.546 | 0.647 | 0.505 | 1.56 | 0.455 | 0.383 | 0.812 | 0.84 | 0.439 | 1.02 | 0.68 | 0.427 | 0.796
9 | ERMKVYVPTGF [EPHX1_Y393] | 0.658 | 0.522 | 0.562 | 0.472 | 0.407 | 0.513 | 0.818 | 0.563 | 0.453 | 0.672 | 0.539 | 0.515 | 0.557 | 0.768 | 0.56 | 0.761
10 | ERNTVYSSSGV [NELL2_Y350] | 0.539 | 0.379 | 0.359 | 0.768 | 0.502 | 0.372 | 0.474 | 0.666 | 0.39 | 0.521 | 0.679 | 0.544 | 0.405 | 0.741 | 0.485 | 0.952
11 | ESDGAYIHRMQ [CCDC137_Y125] | 0.726 | 0.493 | 0.414 | 0.378 | 0.408 | 0.419 | 0.873 | 0.403 | 0.406 | 0.703 | 0.514 | 0.365 | 0.824 | 0.656 | 0.541 | 0.857
12 | ESDYPYSSSYE [SRPK2_Y427_T426P] | 1.19 | 0.649 | 0.499 | 0.581 | 0.589 | 0.668 | 1.18 | 0.784 | 0.513 | 0.481 | 0.789 | 0.593 | 0.71 | 0.395 | 0.829 | 0.832
13 | ESKAGYRAPRS [CLDN7_Y195_V197A] | 0.536 | 0.415 | 0.339 | 0.404 | 0.35 | 0.425 | 0.519 | 0.349 | 0.34 | 0.402 | 0.483 | 0.415 | 0.593 | 0.74 | 0.542 | 1.04
14 | ETAVHYIHDGI [GATD3A_Y250_L248V] | 0.631 | 0.43 | 0.426 | 0.399 | 0.419 | 0.445 | 0.726 | 0.461 | 0.453 | 0.606 | 0.543 | 0.389 | 0.649 | 0.465 | 0.504 | 0.678

From the supplement of paper PMC10065799, “High-throughput profiling of sequence recognition by tyrosine kinases and SH2 domains using bacterial peptide display” (eLife, 2023)
